# Measured values: patent publication US20130289246A1
# How the values were obtained:
# Assay in all cases: cell-based or functional assay
# [1] = molecular target: HA of A/Alabama/1/1981 (H3N2) virus (Influenza A virus (H3N2))
# [2] = molecular target: HA of A/Hong Kong/1/1968 (H3N2) virus (Influenza A virus (H3N2)) (UniProt Q91MA7)
# [3] = molecular target: HA of A/California/04/2009 (H1N1) virus (Influenza A virus (H1N1))
# [4] = molecular target: HA of A/Vietnam/1203/2004 (H5N1) virus (Influenza A virus (H5N1))
substance,measurement,setting,value
murine hybridoma mAb S139/1 (antibody),HAI activity,[1],> 50 µg/mL
same,HAI activity,[2],< 0.2 µg/mL
same,HAI activity,[3],> 50 µg/mL
same,HAI activity,[4],> 50 µg/mL
